Measured values reported in the Immune Epitope Database (IEDB).

Columns and labels:
HLA-C*12:03 = assay: IEDB peptide-MHC binding, purified MHC/direct/fluorescence; filed as Kd, often an IC50 or EC50 that approximates it; ≥ and ≤ were set here for values at or beyond the usual limits of such assays
HLA-A*01:01 [1] = assay: IEDB peptide-MHC binding, purified MHC/competitive/fluorescence; filed as Kd, often an IC50 or EC50 that approximates it; ≥ and ≤ were set here for values at or beyond the usual limits of such assays; settings: source organism: Yersinia pestis Antiqua
HLA-A*26:01 = assay: as above; settings: source organism: Yersinia pestis Antiqua
HLA-B*35:01 [2] = assay: as above; settings: source organism: Yersinia pestis Antiqua
HLA-A*03:01 [3] = assay: IEDB peptide-MHC binding, purified MHC/direct/fluorescence; filed as Kd, often an IC50 or EC50 that approximates it; ≥ and ≤ were set here for values at or beyond the usual limits of such assays; settings: source organism: Escherichia coli O157:H7
HLA-A*11:01 [4] = assay: as above; settings: source organism: Escherichia coli O157:H7
HLA-A*31:01 [5] = assay: IEDB peptide-MHC binding, purified MHC/competitive/fluorescence; filed as Kd, often an IC50 or EC50 that approximates it; ≥ and ≤ were set here for values at or beyond the usual limits of such assays
HLA-A*01:01 [6] = assay: IEDB peptide-MHC binding, purified MHC/competitive/radioactivity; filed as Kd, often an IC50 or EC50 that approximates it; ≥ and ≤ were set here for values at or beyond the usual limits of such assays; settings: source organism: Hepatitis C virus (isolate H)
HLA-A*02:01 = assay: as above; settings: source organism: Hepatitis C virus (isolate H)
HLA-A*02:02 = assay: as above; settings: source organism: Hepatitis C virus (isolate H)
HLA-A*02:03 = assay: as above; settings: source organism: Hepatitis C virus (isolate H)
HLA-A*02:06 = assay: as above; settings: source organism: Hepatitis C virus (isolate H)
HLA-A*03:01 [7] = assay: as above; settings: source organism: Hepatitis C virus (isolate H)
HLA-A*11:01 [8] = assay: as above; settings: source organism: Hepatitis C virus (isolate H)
HLA-A*31:01 [9] = assay: as above; settings: source organism: Hepatitis C virus (isolate H)
HLA-A*33:01 = assay: as above; settings: source organism: Hepatitis C virus (isolate H)
HLA-A*68:01 = assay: as above; settings: source organism: Hepatitis C virus (isolate H)
HLA-A*68:02 = assay: as above; settings: source organism: Hepatitis C virus (isolate H)
HLA-B*07:02 = assay: as above; settings: source organism: Hepatitis C virus (isolate H)
HLA-B*08:01 = assay: as above; settings: source organism: Hepatitis C virus (isolate H)
HLA-B*18:01 = assay: as above; settings: source organism: Hepatitis C virus (isolate H)
HLA-B*35:01 [10] = assay: as above; settings: source organism: Hepatitis C virus (isolate H)
HLA-B*40:01 = assay: as above; settings: source organism: Hepatitis C virus (isolate H)
HLA-B*40:02 = assay: as above; settings: source organism: Hepatitis C virus (isolate H)
HLA-B*44:02 = assay: as above; settings: source organism: Hepatitis C virus (isolate H)
HLA-B*44:03 = assay: as above; settings: source organism: Hepatitis C virus (isolate H)
HLA-B*51:01 [11] = assay: as above; settings: source organism: Hepatitis C virus (isolate H)
HLA-B*53:01 = assay: as above; settings: source organism: Hepatitis C virus (isolate H)
HLA-B*54:01 = assay: as above; settings: source organism: Hepatitis C virus (isolate H)
HLA-B*51:01 [12] = assay: IEDB peptide-MHC binding, purified MHC/competitive/fluorescence; filed as Kd, often an IC50 or EC50 that approximates it; ≥ and ≤ were set here for values at or beyond the usual limits of such assays; settings: source organism: Rickettsia felis URRWXCal2
HLA-A*03:01 [13] = assay: as above; settings: source organism: Bacillus cereus G9241

Question: Which results are given for FASSRMSTY?
Answer: Kd (HLA-C*12:03; source organism: Yersinia pestis Antiqua): ≤ 1 nM; Kd (HLA-A*01:01 [1]): 979 nM; Kd (HLA-A*26:01): 223 nM; Kd (HLA-B*35:01 [2]): 0.2 nM

Question: What does the source list for GMLVGRLGK?
Answer: Kd (HLA-A*03:01 [3]): 29.3 nM; Kd (HLA-A*11:01 [4]): 191 nM; Kd (HLA-A*31:01 [5]; source organism: Escherichia coli O157:H7 str. Sakai): 13.7 nM

Question: HPALVFDITK was tested. Which Kd (HLA-A*01:01 [6]) did it give?
Answer: The Kd was 6400 nM.

Question: What about the Kd (HLA-A*02:01) of the same sequence?
Answer: The Kd was ≥ 69400 nM.

Question: And the Kd (HLA-A*02:02)?
Answer: Its Kd is ≥ 47200 nM.

Question: And the Kd (HLA-A*02:03)?
Answer: The Kd was 7410 nM.

Question: And the Kd (HLA-A*02:06)?
Answer: The Kd was ≥ 69800 nM.

Question: What about the Kd (HLA-A*03:01 [7]) of the same sequence?
Answer: The Kd was 4200 nM.

Question: And the Kd (HLA-A*11:01 [8])?
Answer: The Kd was 862 nM.

Question: And the Kd (HLA-A*31:01 [9])?
Answer: Its Kd is ≥ 70000 nM.

Question: What about the Kd (HLA-A*33:01) of the same sequence?
Answer: Its Kd is ≥ 38400 nM.

Question: And the Kd (HLA-A*68:01)?
Answer: Its Kd is 2.32 nM.

Question: What about the Kd (HLA-A*68:02) of the same sequence?
Answer: The Kd was ≥ 69800 nM.

Question: What about the Kd (HLA-B*07:02) of the same sequence?
Answer: Its Kd is 3040 nM.

Question: And the Kd (HLA-B*08:01)?
Answer: The Kd was ≥ 52100 nM.

Question: And the Kd (HLA-B*18:01)?
Answer: The Kd was ≥ 28200 nM.

Question: And the Kd (HLA-B*35:01 [10])?
Answer: Its Kd is 433 nM.

Question: And the Kd (HLA-B*40:01)?
Answer: The Kd was ≥ 69600 nM.

Question: And the Kd (HLA-B*40:02)?
Answer: Its Kd is ≥ 70800 nM.

Question: And the Kd (HLA-B*44:02)?
Answer: The Kd was ≥ 70200 nM.

Question: What about the Kd (HLA-B*44:03) of the same sequence?
Answer: Its Kd is ≥ 63300 nM.

Question: And the Kd (HLA-B*51:01 [11])?
Answer: Its Kd is ≥ 69600 nM.

Question: And the Kd (HLA-B*53:01)?
Answer: Its Kd is 478 nM.

Question: And the Kd (HLA-B*54:01)?
Answer: The Kd was 130 nM.

Question: With IAMESIVIW as the sequence, how does the Kd (HLA-C*12:03; source organism: Human immunodeficiency virus 1) read?
Answer: The Kd was ≤ 1 nM.

Question: What does the source list for IAYESSNKI?
Answer: Kd (HLA-C*12:03; source organism: Rickettsia felis URRWXCal2): 7 nM; Kd (HLA-B*51:01 [12]): 196 nM

Question: Which Kd (HLA-A*03:01 [13]) does the source give for ILIFLRNFR here?
Answer: The Kd was ≥ 20000 nM.

Question: And the Kd (HLA-A*31:01 [5]; source organism: Bacillus cereus G9241)?
Answer: Its Kd is 5.1 nM.

Question: How did the Kd (HLA-A*03:01 [3]) turn out when KLAETRMGY was run?
Answer: The Kd was 71.1 nM.

Question: What about the Kd (HLA-A*11:01 [4]) of the same sequence?
Answer: The Kd was 932 nM.

Question: What about the Kd (HLA-A*31:01 [5]; source organism: Escherichia coli) of the same sequence?
Answer: Its Kd is 153 nM.
